According to publication PMC9474507:

Assays:
[1] = target: pre-formed corona layer (proteins of 10% mouse serum pre-adsorbed on L-NPs) (mouse (endogenous in serum)); assay: BLI; L-NPs loaded on human IgG-coated AR2G biosensors, immersed in 10% mouse serum (300 s in the methods, 3 min in the text) and rinsed with water; association 300 s with 6.25-100 nM HSA or IgG, dissociation 600 s in buffer; 30 °C, 1000 rpm; 1:1 model
[2] = target: Albumin purified from human serum (human) (UniProt P02768); assay: BLI; HSA pre-coated on L-NPs
[3] = target: Immunoglobulin G purified from human serum (human) [IgG part: P01857]; assay: BLI; IgG pre-coated on L-NPs

| Kd [1] [nM] | Kd [2] [nM] | Kd [3] [nM] | Substance |
| --- | --- | --- | --- |
| 32.5 |  |  | Albumin purified from human serum (from UniProt P02768 25-609) (natural protein) |
| 1.2 |  |  | Immunoglobulin G purified from human serum (antibody) |
|  | < 0.001 | 5.1 | Immunoglobulin G purified from human serum (from UniProt P01857) |
